According to US20060257852A1 (priority 2003, published 2006):

Key:
[1] = biological target: nSh[change], Spike without transmembrane and cytoplasmic domains, with histidine tag (SARS coronavirus (Frankfurt isolate)) (UniProt P59594); assay: self-association; western blot of cell lysate
[2] = biological target: nSh[change], Spike without transmembrane and cytoplasmic domains, with histidine tag (SARS coronavirus (Frankfurt isolate)) (UniProt P59594); assay: self-association; non-heated SDS-PAGE and western blot

Substance: nSh[change], Spike without transmembrane and cytoplasmic domains, with histidine tag (from UniProt P59594 14-1195)
- frequency of monomeric form [1]: 90%
- frequency of oligomeric form [1]: 10%
- efficiency of oligomerization [2]: < 10%
